Measured values: patent US20230346969A1, “INTERMEDIATE FOR PREPARING ANTIBODY-DRUG CONJUGATE (ADC), PREPARATION METHOD THEREFOR, AND USE THEREOF” (priority 2020, published 2023)

Assays:
[1] = target: Human trophoblast cell surface antigen 2 (Trop-2), on tumor cell lines (human) (UniProt P09758); experiment: flow cytometry, 5 ug/mL hRS7 + PE anti-human IgG; cell line CFPAC-1 (pancreas)
[2] = target: Human trophoblast cell surface antigen 2 (Trop-2), on tumor cell lines (human) (UniProt P09758); experiment: flow cytometry, 5 ug/mL hRS7 + PE anti-human IgG; cell line printed 'CPAC-1' (pancreas; probably CFPAC-1)

Chain of UniProt P09758 (P09758 27-323): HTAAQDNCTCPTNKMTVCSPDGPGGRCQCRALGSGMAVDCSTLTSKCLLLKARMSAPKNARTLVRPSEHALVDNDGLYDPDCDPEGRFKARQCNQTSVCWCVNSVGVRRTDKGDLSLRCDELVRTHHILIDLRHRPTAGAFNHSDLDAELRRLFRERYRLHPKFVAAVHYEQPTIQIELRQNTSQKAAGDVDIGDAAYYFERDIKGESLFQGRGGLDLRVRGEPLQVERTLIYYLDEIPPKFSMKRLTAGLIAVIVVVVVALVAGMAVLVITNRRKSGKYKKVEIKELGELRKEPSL

Substance: Humanized Trop-2 antibody hRS7
- MFI [1]: 35400 MFI
- MFI [2]: 3840 MFI
